Experiment: soluble fraction after stress (log2 fold change); higher = more stays soluble; pooled small domains, quantitative proteomics
Settings: stress: 75 degC
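Note: 20 min heating vs room temperature control held 20 min.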

Sequence | soluble fraction (log2)
HMQSDQLSDREREILRLIGSGRTNQEISQELQVSGSTVRTHLQHILDKLGLENRNQAVLYAIRIGLAAPP | -0.163
HMQSHGSRIWTDITGNFTREASFIELAEGKVTLQLTDGRRTIISFEILSKKDQEYVLDIGDS | -2.77
HMQSKDDLLDTFRVVKGNAALLNDQNKKLIRSLKVSSFGFTGITDQAAEVKKEMPDVLLEKASIEDILF | 0.0597
HMQSLAAKINGYIVAQRTSIAAIAKEIGYSRVTVSRYLAGKYDSDPTGIEAKLAAFLAGQTGEE | -3.99
HMQSNIHELQKKLNEALQALSEDHRAVVTMFDIQGMPHAEISKILGVSEGTVRSRLYYAHQQLQGHL | -1.11
HMQSRYALLAGMLRARITEGDWVPGSAIPAETVLAKEHGVALGTMRQAIALLVSQGLLERQHGRGTFVRS | -1.58
HMQSSDQTDNIYENAVSIVLETGKASASHLQRVLGIDYNLAAHLIDKMEDGGLLSPPNYLGHRDVYGYT | 0.317
HMQTFNADDIEPIIKEILQENPKAISDFLTGNENVVKFLLGQVMKNTKGKANPKVIEELLINQLRELNN | -0.235
HMQTGYHVRITASTLNVRRDHSASSAVATQVRRGEVYTIVDEYNNGGTLWGKLKSGAGWIALKYTQS | -3.39
HMQTTITITNTVTGQKAQFPPPFNPMSLSKIGVDETFEKEVFVDGVDTFGYGLDGYLTFYELKDFLRSYQ | -2.61
HMQVEYTRGELLQDLKEENVLYATITPSRETPTGEVDFVFKDKSIKTLYVTDVSEIEGLLMDYGIDPEVKK | -0.454
HMQVITEPFQEKYREFINMSTVTQRLEERETLSFTAQTVEGRWLTIIIVPQGYDKTGKLSTVLVANR | 0.274
HMQVSDEGAIQLLVQKAIEENPQAIEAFRGGKTSALGPVVGWVMKQSKGAANPTMVKTLLEKAI | 0.154
HMQVVVEKSKEKVIISGNQYYIHIVKKGETAFSIAKAYGITVDELVKNNPSAATVLKEGQALRIPVVE | 0.0365
HMQYDESSQLGERFLNQALNALKADPDKVGDAQWEKLLKENSAKSRQEVLADIGLGKQLAIVIARELLS | -0.148
HMQYPSSLDSRAKQSLYDNLERNEILALALDNVIQSNKLDGWRDGGIKERKLRLAINNLLKNDEHTDNIME | -0.0341
HMQYQIITENGKQYYLYTVQKSEGFYSIGKRFEITNDEIIKANPEAALGLKLGQVLKIPVYK | -2.4
HMRAAKSEDTRTRLIEGGMALFGQKGYNATGIKDITDAAGVPKGSFYNYFASKEDFGAEIIHSY | 0.14
HMRAEELEQFVERLKNEVMNNFPLKELSDNELREKIENLVEIRLANVYVSIEQRVAIAEQIYSSIR | -1.1
HMRAERVQITDPYIELHTGPGRGFPIFFVAPREQWISIELRHTDWFKVRAVGGQVGWVQRKQLEST | -1.56
HMRAGHDFEALKHIESSLDKHLTDEGIKIKSEKRGAIVARWYQSHVEGREVTDDDVHTWIELFF | -2.82
HMRAPIGFRISNRRKSLKISQVALARLVGISPSYLNLIENNKRDVGGALLQRVALHLNIDIDDL | -3.13
HMRARTLSTTGGESLLTLAESLYPDDDRARARFIEATAAANPKLFADIAALTRVLPAGTTLRMPDLRA | -0.0128
HMRARTQYWPFVEEKAAELKLPLHLVNVEPLFGEQKVVVHYTANGRIDFRELVHLLARRFHARIEMR | 0.0673

Sequence | soluble fraction (log2)
HMRATLTDETARVVQEPTSESISLTSLRKGEEFEIGKVIRKKKEVWVTVTTSSGVKGYISGDTHIF | 0.00739
HMRAVFEQLRIGQTLAGVVKAQEKGFSLVEIDGQTVAMRLPHPAAVGDTLRLRFAGHMPQAVFLLES | -1.99
HMRAVPSIAFVTQKLIEQGVTMEQLVRSLLLDHEEYENDDSLERTADELFGKARMIISNYTPE | -1.08
HMRDADRYAFMQENVEDFAKDMRRKHMTYDVLYEEYIRRTDNPYGYTQFKAIVQEYEKNHDYK | -0.367
HMRDGYEKPTEVGEGGRNPAMLSYIGHLRAKGHLSEEDIRSMAHGFNATTFDPPLDRDEVDGLVSRY | 0.106
HMRDITAQSNASELYFEERDLEAFIEKLERLYPEIRYVNRLMIHSWGQQVVRFFDPDGNLIEVGTP | -0.146
HMRDKTMLGNVIRTRRKKMNLTLEELSKQVGITSGGLSQIERGLVDPSLSVLRRISRALNLPMNVMFSE | -1.32
HMRDLAEAETILDALPTRLRKIVRWRHLEGLSQTEIAARLEISQMHVSRLYRRAISMIHASLADD | -0.289
HMREEQELFRKLLEVNGIGPKVAAGMLAGGRPEDVVSAIRREDVAWLTKLPGIGRKTAQRIVLDLKDKLD | -0.331
HMREPQMVTVNGDKVTHGHAYRSNVNPEDWYFTARINGQQLKPQKMEPADVAAYDKKEIGVPELMQR | -0.275
HMRESPYRRVAKFLLLIGTAEAAKIVSRLDQDQVEKVMLELSGIRSVPRDEATVILAEFESLLQQAR | -2.03
HMRESRLFQILYQLLTKKKVTAANLAKQFEVSVRTIYRDIDALSSSGIPIYASQGKNGGIQLDEDF | -0.992
HMRETELPVTIISAGRILAENLHLAGRDGGWLEAELKRRSLTAEQVLLLTVDAAGTVYLVRKEDL | -2.1
HMREWPLWEIFIRGQHGLNHRHVGSLHAPDAAMAIGNARDVYTRRNEGVSIWAVRSADVVASVPSE | -2.08
HMRGADNAASILKEVGPHPEDGKPITVRSGRYGPYVKHGTTNATLPKDIKPEEITLDEAIALINERVAKG | 0.018
HMRGGKGTVPDVTGMDAAAAVRILEKAGMNVAYIRGAGFVAEQTPAAGTKLKKGDKAYITLSWK | -0.622
HMRGGWESLTDREREIAVLAAEGHSNRTIASTLFISDRTVQSHVSRALRALGVDSRTGIPSLVTTATR | 0.09
HMRGWGTVKRRTPKSGRYRASYIGPDGKRYAADHTYAAKVDADAWLSSERALITAGVWTPPTDRVT | -0.688
HMRHLSVPSQDTQQVLQRLKVELALPEGARVRSDPSDPGRRLIPFTESVPQEMIDQYPVVSINI | -0.147
HMRIAGIDIPDNKRGEVALTYIFGIGRSSSKKILKSAGIDSDKQIGKWTDDESNLVRKLIRDEYTIEGDL | -0.312
HMRIASANAIYDELLNKRDDAKLAELKQEDINLYALYILQNGSADERAALENTQGIDVVLKEIINLQNG | -0.305
HMRIGINDRIHEIVDVLRLKKSTPFEDLFSGLVTRFDLVITFLALLEMGKLRLLRLYQTDPLAPLHVEYTG | -0.0164
HMRILDFPALKTEFDQLTKDLMAKYPEDGADRVRAIIETVLGPGKKVGALQPHQAELLAEVNTSLKANL | -0.0738
HMRILGIDPGTRITGYGIIDIEGNRLRHVDNGIIKTRSSDALPLRLKVIYDGLTAVLKQYSPQAV | 0.23

Sequence | soluble fraction (log2)
HMRIQTVDYNTFISMVEDGKVDAAEIQQQENRILFSDQDQKVYKTAMVPDDDLTQRLLDAGVSTNG | 0.726
HMRISKRQLILESAAAIINEKGADYLTLDAVAQRAGISKGGLFYHFKSKDELIKELVNYANN | -1.56
HMRISLKAQVYEYLKQAIINGDLKVGEIYSEQYFADKLSISRTPVREAILQLQHENMVEVKANRGIIVK | -2.73
HMRITTKNYFKAISEVGFENLPEVLKKSHLVIEEKTNKGNDWGIYENDAEAKKVFDLAFDKLEEFIDRKED | 0.461
HMRIVQTDYRNFLSQVESGAVRSVQIDETQIRYTALDSGGKEIVYNTGKVDDPGLVNRLYDAGVEFSQVIP | -0.132
HMRKATEVPFTAFKDSIENSHGKLSKAGLARHLADEYGMSQRNMERRINNLIDNKTIKYGNEGGLVWIG | -0.104
HMRKDWTPGAFVEAFVNDTPATRSTILAKAVSAGLSRWAADNLLRTADNDGLMVRQGSGKRNEPFTYRRGP | -0.257
HMRKEEFIRELVLELKQNVSEQVILEQKRFYEEYILTEVRGGKTEEEVIASLSEPRLLAKSIIDAAEAGGD | -1.3
HMRKKDGEAYVLPRPLKKGDSVLIYDIDKKGTVLQPPEKGGKTALIQAGIIQTRVPVSNLRLLE | 0.537
HMRKKIIAQTLEEIRKSKGYSQKQVAAFIKVKPTTYNTYESGRTEPPAEILVRLSYLYRTPVDTLVQRDR | -2.13
HMRKMNDAVFYVEMSRPKRGYYTATYKLITRNPNSLPEHEITRRFFQMLEETIRKNPPYYLWTH | -0.527
HMRKPISQEIVDEVLKLAKNNPDWGYDRIAGVMKYLKYDVSATTVRHILDDNGIVPDPERRLR | 0.23
HMRKRLLQLVHIGKSQLGMDDETYRSLLSQQFYQNSAKNISYSELVKLVKILQQKGAKIRLPH | -2.17
HMRKVVLEEKEANYYAEPNSESELLGVLKRGIHLTVTDVKKEAGSDGWVKLVHPDGQEGWISGRARIRV | -0.212
HMRKYKIKEELPDNIYKIIQDNPGIVQKDIYDILGREYQQNISSYIYSMDKNGVIKRDKHGNSYKLYL | -0.119
HMRLATSELVYRIRALIRDQELQPGERLGSERALAQSLGISRSDLRMALAVLEASHEVIRKIGRAGGIVVS | -3.18
HMRLHSSGEDYLKAIFILEAQHSSVRSVEVAEYMNVSKASVSHAVALLKKNGFLKMNQDYDLTER | -0.163
HMRLIALPSVTDISIRQAEATLMSIGIKVSSIQYAPSEYKDLVLEVKYRGQSIIQGAKIPEGSSVVLVAGN | -3.21
HMRLPLYLALAQTLRQEIDAKQYKIGAHLPPEDQLVVKYGVSRHTVRQALQELKNEGLITSKAGIGTIVSS | -1.56
HMRLPQEVWEKIRAAYEAHGLSFSELAEMYGVNKSNISRRAKAEGWNQAETQRLITATVENE | 0.374
HMRLREETRKVDKTGLIQVDGRHYRVPDEYSQKDVQILMDDNSIMVYRKGDFVIELDKETSVYMPH | 0.347
HMRMETRILTADESGIRLDAFLASRLAVSRSLAASLIDDGNVTLNGTVPKKKTAVNVGDILEVAMP | -0.987
